T1: human GIP receptor (human, UniProt P48546 22-466)
T1 sequence (looked up): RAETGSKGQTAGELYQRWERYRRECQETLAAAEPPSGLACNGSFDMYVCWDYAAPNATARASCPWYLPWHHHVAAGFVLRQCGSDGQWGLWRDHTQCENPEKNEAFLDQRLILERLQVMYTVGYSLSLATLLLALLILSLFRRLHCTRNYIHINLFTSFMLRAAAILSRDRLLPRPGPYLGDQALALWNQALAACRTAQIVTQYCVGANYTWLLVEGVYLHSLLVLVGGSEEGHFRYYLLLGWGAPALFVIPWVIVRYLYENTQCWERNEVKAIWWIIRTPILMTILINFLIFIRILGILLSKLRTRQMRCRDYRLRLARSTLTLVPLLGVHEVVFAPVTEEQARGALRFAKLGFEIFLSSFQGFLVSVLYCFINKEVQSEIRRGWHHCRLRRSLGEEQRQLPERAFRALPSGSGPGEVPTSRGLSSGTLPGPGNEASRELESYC


Molecular target: T1, human GIP receptor
Test: cell-based or functional assay

Binder	cAMP antagonism [nM]	cAMP antagonism % inhib [%]	cAMP antagonism log [log M]
TFISDYKIAMDKIHQQDFVNWLLAQKGKKNDWKHNI (HELM PEPTIDE1{T.F.I.S.D.Y.K.I.A.M.D.K.I.H.Q.Q.D.F.V.N.W.L.L.A.Q.K.G.K.K.N.D.W.K.H.N.I}|PEPTIDE2{[O=C(O)CCCCCCCCCCCCCCC(=O)[*:2]].[gGlu]}$PEPTIDE1,PEPTIDE2,7:R3-2:R2$$$V2.0; N-terminus assumed; SMILES CC[C@H](C)[C@H](NC(=O)[C@H](CC(N)=O)NC(=O)[C@H](Cc1c[nH]cn1)NC(=O)[C@H](CCCCN)NC(=O)[C@H](Cc1c[nH]c2ccccc12)NC(=O)[C@H](CC(=O)O)NC(=O)[C@H](CC(N)=O)NC(=O)[C@H](CCCCN)NC(=O)[C@H](CCCCN)NC(=O)CNC(=O)[C@H](CCCCN)NC(=O)[C@H](CCC(N)=O)NC(=O)[C@H](C)NC(=O)[C@H](CC(C)C)NC(=O)[C@H](CC(C)C)NC(=O)[C@H](Cc1c[nH]c2ccccc12)NC(=O)[C@H](CC(N)=O)NC(=O)[C@@H](NC(=O)[C@H](Cc1ccccc1)NC(=O)[C@H](CC(=O)O)NC(=O)[C@H](CCC(N)=O)NC(=O)[C@H](CCC(N)=O)NC(=O)[C@H](Cc1c[nH]cn1)NC(=O)[C@@H](NC(=O)[C@H](CCCCN)NC(=O)[C@H](CC(=O)O)NC(=O)[C@H](CCSC)NC(=O)[C@H](C)NC(=O)[C@@H](NC(=O)[C@H](CCCCNC(=O)CC[C@H](NC(=O)CCCCCCCCCCCCCCC(=O)O)C(=O)O)NC(=O)[C@H](Cc1ccc(O)cc1)NC(=O)[C@H](CC(=O)O)NC(=O)[C@H](CO)NC(=O)[C@@H](NC(=O)[C@H](Cc1ccccc1)NC(=O)[C@@H](N)[C@@H](C)O)[C@@H](C)CC)[C@@H](C)CC)[C@@H](C)CC)C(C)C)C(=O)O) [AT461]	23	100	-7.6
TFISDYKIAMDKIHQQDFVNWLLAQKGKKN (HELM PEPTIDE1{T.F.I.S.D.Y.K.I.A.M.D.K.I.H.Q.Q.D.F.V.N.W.L.L.A.Q.K.G.K.K.N}|PEPTIDE2{[O=C(O)CCCCCCCCCCCCCCC(=O)[*:2]].[gGlu]}$PEPTIDE1,PEPTIDE2,7:R3-2:R2$$$V2.0; N-terminus assumed; SMILES CC[C@H](C)[C@H](NC(=O)[C@H](CCCCNC(=O)CC[C@H](NC(=O)CCCCCCCCCCCCCCC(=O)O)C(=O)O)NC(=O)[C@H](Cc1ccc(O)cc1)NC(=O)[C@H](CC(=O)O)NC(=O)[C@H](CO)NC(=O)[C@@H](NC(=O)[C@H](Cc1ccccc1)NC(=O)[C@@H](N)[C@@H](C)O)[C@@H](C)CC)C(=O)N[C@@H](C)C(=O)N[C@@H](CCSC)C(=O)N[C@@H](CC(=O)O)C(=O)N[C@@H](CCCCN)C(=O)N[C@H](C(=O)N[C@@H](Cc1c[nH]cn1)C(=O)N[C@@H](CCC(N)=O)C(=O)N[C@@H](CCC(N)=O)C(=O)N[C@@H](CC(=O)O)C(=O)N[C@@H](Cc1ccccc1)C(=O)N[C@H](C(=O)N[C@@H](CC(N)=O)C(=O)N[C@@H](Cc1c[nH]c2ccccc12)C(=O)N[C@@H](CC(C)C)C(=O)N[C@@H](CC(C)C)C(=O)N[C@@H](C)C(=O)N[C@@H](CCC(N)=O)C(=O)N[C@@H](CCCCN)C(=O)NCC(=O)N[C@@H](CCCCN)C(=O)N[C@@H](CCCCN)C(=O)N[C@@H](CC(N)=O)C(=O)O)C(C)C)[C@@H](C)CC) [AT457]	14	100	-7.9
TFISDYKIAMDKIHQQDFVNWLLAQKGKKND (HELM PEPTIDE1{T.F.I.S.D.Y.K.I.A.M.D.K.I.H.Q.Q.D.F.V.N.W.L.L.A.Q.K.G.K.K.N.D}|PEPTIDE2{[O=C(O)CCCCCCCCCCCCCCC(=O)[*:2]].[gGlu]}$PEPTIDE1,PEPTIDE2,7:R3-2:R2$$$V2.0; N-terminus assumed; SMILES CC[C@H](C)[C@H](NC(=O)[C@H](CCCCNC(=O)CC[C@H](NC(=O)CCCCCCCCCCCCCCC(=O)O)C(=O)O)NC(=O)[C@H](Cc1ccc(O)cc1)NC(=O)[C@H](CC(=O)O)NC(=O)[C@H](CO)NC(=O)[C@@H](NC(=O)[C@H](Cc1ccccc1)NC(=O)[C@@H](N)[C@@H](C)O)[C@@H](C)CC)C(=O)N[C@@H](C)C(=O)N[C@@H](CCSC)C(=O)N[C@@H](CC(=O)O)C(=O)N[C@@H](CCCCN)C(=O)N[C@H](C(=O)N[C@@H](Cc1c[nH]cn1)C(=O)N[C@@H](CCC(N)=O)C(=O)N[C@@H](CCC(N)=O)C(=O)N[C@@H](CC(=O)O)C(=O)N[C@@H](Cc1ccccc1)C(=O)N[C@H](C(=O)N[C@@H](CC(N)=O)C(=O)N[C@@H](Cc1c[nH]c2ccccc12)C(=O)N[C@@H](CC(C)C)C(=O)N[C@@H](CC(C)C)C(=O)N[C@@H](C)C(=O)N[C@@H](CCC(N)=O)C(=O)N[C@@H](CCCCN)C(=O)NCC(=O)N[C@@H](CCCCN)C(=O)N[C@@H](CCCCN)C(=O)N[C@@H](CC(N)=O)C(=O)N[C@@H](CC(=O)O)C(=O)O)C(C)C)[C@@H](C)CC) [AT458]	38	100	-7.4
TFISDYKIAMDKIHQQDFVNWLLAQKGKKNDWKH (HELM PEPTIDE1{T.F.I.S.D.Y.K.I.A.M.D.K.I.H.Q.Q.D.F.V.N.W.L.L.A.Q.K.G.K.K.N.D.W.K.H}|PEPTIDE2{[O=C(O)CCCCCCCCCCCCCCC(=O)[*:2]].[gGlu]}$PEPTIDE1,PEPTIDE2,7:R3-2:R2$$$V2.0; N-terminus assumed; SMILES CC[C@H](C)[C@H](NC(=O)[C@H](CCCCNC(=O)CC[C@H](NC(=O)CCCCCCCCCCCCCCC(=O)O)C(=O)O)NC(=O)[C@H](Cc1ccc(O)cc1)NC(=O)[C@H](CC(=O)O)NC(=O)[C@H](CO)NC(=O)[C@@H](NC(=O)[C@H](Cc1ccccc1)NC(=O)[C@@H](N)[C@@H](C)O)[C@@H](C)CC)C(=O)N[C@@H](C)C(=O)N[C@@H](CCSC)C(=O)N[C@@H](CC(=O)O)C(=O)N[C@@H](CCCCN)C(=O)N[C@H](C(=O)N[C@@H](Cc1c[nH]cn1)C(=O)N[C@@H](CCC(N)=O)C(=O)N[C@@H](CCC(N)=O)C(=O)N[C@@H](CC(=O)O)C(=O)N[C@@H](Cc1ccccc1)C(=O)N[C@H](C(=O)N[C@@H](CC(N)=O)C(=O)N[C@@H](Cc1c[nH]c2ccccc12)C(=O)N[C@@H](CC(C)C)C(=O)N[C@@H](CC(C)C)C(=O)N[C@@H](C)C(=O)N[C@@H](CCC(N)=O)C(=O)N[C@@H](CCCCN)C(=O)NCC(=O)N[C@@H](CCCCN)C(=O)N[C@@H](CCCCN)C(=O)N[C@@H](CC(N)=O)C(=O)N[C@@H](CC(=O)O)C(=O)N[C@@H](Cc1c[nH]c2ccccc12)C(=O)N[C@@H](CCCCN)C(=O)N[C@@H](Cc1c[nH]cn1)C(=O)O)C(C)C)[C@@H](C)CC) [AT460]	40	100	-7.4
TFISDYKIAMDKIHQQDFVNWLLAQKGKKNDWK (HELM PEPTIDE1{T.F.I.S.D.Y.K.I.A.M.D.K.I.H.Q.Q.D.F.V.N.W.L.L.A.Q.K.G.K.K.N.D.W.K}|PEPTIDE2{[O=C(O)CCCCCCCCCCCCCCC(=O)[*:2]].[gGlu]}$PEPTIDE1,PEPTIDE2,7:R3-2:R2$$$V2.0; N-terminus assumed; SMILES CC[C@H](C)[C@H](NC(=O)[C@H](CCCCNC(=O)CC[C@H](NC(=O)CCCCCCCCCCCCCCC(=O)O)C(=O)O)NC(=O)[C@H](Cc1ccc(O)cc1)NC(=O)[C@H](CC(=O)O)NC(=O)[C@H](CO)NC(=O)[C@@H](NC(=O)[C@H](Cc1ccccc1)NC(=O)[C@@H](N)[C@@H](C)O)[C@@H](C)CC)C(=O)N[C@@H](C)C(=O)N[C@@H](CCSC)C(=O)N[C@@H](CC(=O)O)C(=O)N[C@@H](CCCCN)C(=O)N[C@H](C(=O)N[C@@H](Cc1c[nH]cn1)C(=O)N[C@@H](CCC(N)=O)C(=O)N[C@@H](CCC(N)=O)C(=O)N[C@@H](CC(=O)O)C(=O)N[C@@H](Cc1ccccc1)C(=O)N[C@H](C(=O)N[C@@H](CC(N)=O)C(=O)N[C@@H](Cc1c[nH]c2ccccc12)C(=O)N[C@@H](CC(C)C)C(=O)N[C@@H](CC(C)C)C(=O)N[C@@H](C)C(=O)N[C@@H](CCC(N)=O)C(=O)N[C@@H](CCCCN)C(=O)NCC(=O)N[C@@H](CCCCN)C(=O)N[C@@H](CCCCN)C(=O)N[C@@H](CC(N)=O)C(=O)N[C@@H](CC(=O)O)C(=O)N[C@@H](Cc1c[nH]c2ccccc12)C(=O)N[C@@H](CCCCN)C(=O)O)C(C)C)[C@@H](C)CC) [AT459]	31	88	-7.5

From US20220298218A1 (ANTAG THERAPEUTICS, published 2022)
